In PMC8943035:

Molecular target: muscle RAS oncogene homolog (MRAS) fused to mCherry, expressed from pmCherry-MRAS (UniProt O14807)
Experiment: FRET or BRET; FRET between GFP (donor, excited at 488 nm) and mCherry (acceptor, emission 610 nm) fusion proteins, imaged in MCF-7 cells

FRET efficiency: 11%
Substance: G-protein gamma subunit 2 (GNG2) fused to EGFP, expressed from pEGFP-GNG2 (from UniProt P59768 1-71) (natural protein)
